Experimental data from US20210403546A1 (published 2021).

Target: human recombinant TGF-b1 (human, UniProt P01137 279-390)
Test: Biacore SPR

Sequence of human recombinant TGF-b1 (P01137 279-390): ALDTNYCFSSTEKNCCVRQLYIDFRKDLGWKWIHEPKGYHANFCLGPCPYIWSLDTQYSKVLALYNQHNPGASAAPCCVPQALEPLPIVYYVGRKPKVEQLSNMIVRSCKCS

Binder | Kd
13A1_2F Fab (LCR13A1_VK_GLv1_05 + LCR13A1_VH_GLv1_03, stable Fab) (Fab, V domains shown) VH: QVQLVQSGSVLAKPGASVKVSCKASGYTFTNYWMHWVRQAPGQGLEWIGTIYPGNSDTNYNQKFKDRAKLTAVTSTSTVYMELSSLRSEDTAVYYCTREDSRSLYYNGWDYFDYWGQGTLVTVSS VL: DIVMTQSPDSLAVSLGERATISCRASESVDNYGISFLNWFQQKPGQPPKLLIYAASNQGSGVPSRFSGSGSGTDFTLNIHPLEAEDAATYYCQQSKEVPRTFGGGTKVEIK | 0.639 nM
13A1_2B Fab (LCR13A1_VH_GLv1_03_LCR13A1_VK_GLv3, stable Fab) (Fab, V domains shown) VH: QVQLVQSGSVLAKPGASVKVSCKASGYTFTNYWMHWVRQAPGQGLEWIGTIYPGNSDTNYNQKFKDRAKLTAVTSTSTVYMELSSLRSEDTAVYYCTREDSRSLYYNGWDYFDYWGQGTLVTVSS VL: DIVMTQSPDSLAVSLGERATINCKSSESVDNYGISFLNWFQQKPGKAPKLLIYAASNQGSGVPDRFSGSGSGTDFTLTISSLQAEDVAVYFCQQSKEVPRTFGGGTKLEIK | 0.615 nM
